From paper PMC3621463 (Nature Communications, 2012)

Molecular target: HDM2 (used for surface plasmon resonance and the competitive binding assay) (UniProt Q00987 1-491)
Test: SPR

Sequence of HDM2 (used for surface plasmon resonance and the competitive binding assay) (Q00987 whole entry): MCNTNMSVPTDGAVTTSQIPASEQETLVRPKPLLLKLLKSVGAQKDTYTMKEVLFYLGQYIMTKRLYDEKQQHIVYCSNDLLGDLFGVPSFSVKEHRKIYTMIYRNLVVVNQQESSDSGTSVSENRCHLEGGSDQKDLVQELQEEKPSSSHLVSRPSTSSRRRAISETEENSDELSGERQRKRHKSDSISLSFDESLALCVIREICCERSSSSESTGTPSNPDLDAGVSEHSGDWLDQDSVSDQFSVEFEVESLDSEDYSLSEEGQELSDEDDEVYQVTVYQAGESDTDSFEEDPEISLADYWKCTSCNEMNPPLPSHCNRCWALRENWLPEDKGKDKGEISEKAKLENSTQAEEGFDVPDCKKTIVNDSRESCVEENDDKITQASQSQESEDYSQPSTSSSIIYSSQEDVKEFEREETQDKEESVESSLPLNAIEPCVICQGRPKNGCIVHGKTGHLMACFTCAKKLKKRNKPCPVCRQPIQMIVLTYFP

Kd: 694 µM
Binder: LWKLLPEDDVLSPLPSQAM (isoaspartate at 29 and 30) [p53 peptide (amino acids 22-40) N29,30IsoD]
